The target in the test is T1, soluble αvβ6 (UniProt P06756 31-992; P18564 22-709, Biotinylated in the blocking ELISA of FIG. 7; the biotin sites are not stated.).
T1 alpha: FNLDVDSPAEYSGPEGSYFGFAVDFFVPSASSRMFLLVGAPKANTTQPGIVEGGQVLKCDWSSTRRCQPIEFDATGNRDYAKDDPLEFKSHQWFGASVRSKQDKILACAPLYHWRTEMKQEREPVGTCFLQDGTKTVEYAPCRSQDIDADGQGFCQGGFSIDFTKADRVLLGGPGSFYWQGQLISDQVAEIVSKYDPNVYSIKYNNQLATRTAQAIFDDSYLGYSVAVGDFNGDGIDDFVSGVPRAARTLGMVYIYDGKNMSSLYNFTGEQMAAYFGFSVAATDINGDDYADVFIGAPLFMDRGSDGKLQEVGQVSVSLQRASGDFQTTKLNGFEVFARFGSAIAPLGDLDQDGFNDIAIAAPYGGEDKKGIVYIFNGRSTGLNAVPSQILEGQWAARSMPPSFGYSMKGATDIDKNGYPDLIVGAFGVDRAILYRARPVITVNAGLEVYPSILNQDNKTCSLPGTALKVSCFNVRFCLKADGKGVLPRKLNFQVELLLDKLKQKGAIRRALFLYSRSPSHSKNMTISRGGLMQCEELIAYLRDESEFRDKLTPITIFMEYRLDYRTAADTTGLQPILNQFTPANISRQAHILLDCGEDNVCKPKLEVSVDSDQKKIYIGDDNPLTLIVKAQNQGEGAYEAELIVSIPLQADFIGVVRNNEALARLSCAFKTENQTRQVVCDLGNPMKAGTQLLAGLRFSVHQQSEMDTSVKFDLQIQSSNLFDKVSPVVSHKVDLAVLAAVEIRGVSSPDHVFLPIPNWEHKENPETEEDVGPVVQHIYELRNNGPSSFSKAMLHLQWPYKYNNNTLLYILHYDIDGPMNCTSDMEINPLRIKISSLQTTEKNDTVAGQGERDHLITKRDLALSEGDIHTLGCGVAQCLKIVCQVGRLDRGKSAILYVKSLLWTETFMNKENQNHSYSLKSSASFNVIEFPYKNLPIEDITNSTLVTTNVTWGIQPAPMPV
T1 beta: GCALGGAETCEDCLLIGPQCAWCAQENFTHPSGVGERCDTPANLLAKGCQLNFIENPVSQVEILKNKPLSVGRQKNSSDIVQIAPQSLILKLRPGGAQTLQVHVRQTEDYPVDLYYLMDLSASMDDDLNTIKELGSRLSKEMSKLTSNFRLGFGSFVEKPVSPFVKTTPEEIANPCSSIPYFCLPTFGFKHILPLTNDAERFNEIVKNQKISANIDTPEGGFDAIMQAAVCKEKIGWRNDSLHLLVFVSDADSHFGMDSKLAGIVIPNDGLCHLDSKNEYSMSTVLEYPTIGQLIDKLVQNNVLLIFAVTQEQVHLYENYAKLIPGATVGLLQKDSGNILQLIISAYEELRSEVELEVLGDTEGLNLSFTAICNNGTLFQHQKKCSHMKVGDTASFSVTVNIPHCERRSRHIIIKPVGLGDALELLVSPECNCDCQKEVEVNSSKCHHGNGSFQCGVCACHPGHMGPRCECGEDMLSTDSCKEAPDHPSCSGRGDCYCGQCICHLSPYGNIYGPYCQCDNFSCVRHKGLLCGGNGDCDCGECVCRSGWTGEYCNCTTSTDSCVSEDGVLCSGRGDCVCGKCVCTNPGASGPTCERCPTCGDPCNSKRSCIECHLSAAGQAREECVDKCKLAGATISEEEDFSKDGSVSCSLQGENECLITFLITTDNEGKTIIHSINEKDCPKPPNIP
In words: binding ELISA. A general note: In an ELISA, binding on a coated surface is turned into a signal by an enzyme label.

This passage reports EC50 results from US20110305629A1 (published 2011).

Usually EC50 stands for the concentration needed to bring the measured effect to its halfway point. A lower EC50 goes with a more potent agent.

B1: chimeric 3G9 antibody (ch3G9) (antibody, V domains shown)
VH: EVMLVESGGGLVQPGGSLRLSCAASGFTFSRYVMSWVRQAPGKGLEWVASISSGGRMYYPDTVKGRFTISRDSAKNSLYLQMNSLRAEDTAVYYCARGSIYDGYYVFPYWGQGTLVTVSS
VL: DIVLTQSPATLSLSPGERATLSCRASQSVSTSSYSYMYWYQQKPGQAPRFLIKYASNLESGIPARFSGSGSGTDFTLTISSLEPEDFAVYYCQHNWEIPFTFGGGTKVEIK
Take B1: it took 0.036 µg/mL to reach a half-maximal effect (EC50).

B2: chimeric 3G9 antibody containing a N to S substitution within the N-linked glycosylation site in the first CDR of the light chain (ch3G9S) (antibody, V domains shown)
VH: B1 VH
VL: B1 VL
B2: the EC50 was found to be 0.043 µg/mL.
